Earlier results in article PMC9736027.

Biological target: Nrf2 (Homo sapiens) (UniProt Q16236)
Chain of UniProt Q16236 (Q16236 whole entry): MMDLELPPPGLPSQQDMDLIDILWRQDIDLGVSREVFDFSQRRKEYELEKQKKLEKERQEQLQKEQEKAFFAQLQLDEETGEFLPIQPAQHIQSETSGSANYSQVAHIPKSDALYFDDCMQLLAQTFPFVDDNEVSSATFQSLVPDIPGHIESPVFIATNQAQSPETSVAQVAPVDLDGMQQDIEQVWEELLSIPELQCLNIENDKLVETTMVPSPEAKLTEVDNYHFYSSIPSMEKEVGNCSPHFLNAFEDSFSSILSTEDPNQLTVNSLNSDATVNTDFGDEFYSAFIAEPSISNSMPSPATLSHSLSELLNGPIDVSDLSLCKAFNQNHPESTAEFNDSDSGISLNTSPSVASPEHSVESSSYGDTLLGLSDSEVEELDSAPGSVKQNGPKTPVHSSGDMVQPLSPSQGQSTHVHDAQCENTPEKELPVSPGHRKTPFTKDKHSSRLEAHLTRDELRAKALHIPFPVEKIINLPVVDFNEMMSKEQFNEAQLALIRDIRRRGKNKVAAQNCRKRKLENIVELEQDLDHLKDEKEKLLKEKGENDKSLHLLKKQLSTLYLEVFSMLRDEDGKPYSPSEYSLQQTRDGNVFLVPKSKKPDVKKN

Keap1 (from UniProt Q14145)
Kd: 0.02 µM
